Data taken from the supplement of paper PMC9170038.

Test system: MS2 coat protein
Test: apparent KD of MS2 coat protein; designed switch direction (-1 OFF switch, 1 ON switch): -1; higher = weaker reporter binding
Outline: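 SNAP-549-labelled MS2 coat protein was titrated, doubling from 0.7 or 1.5 nM to 3 µM, over designed RNA switches transcribed on Illumina chips by stalled E. coli RNA polymerase. Runs were done without input, with 200 uM small-molecule ligand, or with an oligonucleotide input. Apparent KD is the per-design median over clusters of curve-fitted normalised fluorescence.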

[1] = Eterna round: R95, input ligand: FMN 200 uM
[2] = Eterna round: R95, input ligand: microRNA oligo, concentration not stated
[3] = Eterna round: R95, input ligand: none
[4] = input ligand: microRNA oligo, concentration not stated

AGUAACCGUCACGAAAGUGAUGGUUACGCAAGCAAUGAAACAUGAGGAUCACCCAUGUCCUCAUUUGCUCGUCUUAU [Sensor 3 - 41] (puzzle: Sensor v3, turn-off variant 2)
apparent KD of MS2 coat protein [1]: 24.6 nM
apparent KD of MS2 coat protein [2]: 347 nM
apparent KD of MS2 coat protein [3]: 25.7 nM

UGUCAGAUGGUAGGAUAUCCAUAUCGAGUGACCCUUUCCUAACAUGAGGAUCACCCAUGUCGGUGGGAGAAGGGCCGUAUGGUG [salish99_ExNG02_R04_033] (Eterna round: R96, puzzle: Exclusion NG 2)
apparent KD of MS2 coat protein (input ligand: FMN 200 uM): 11.1 nM
apparent KD of MS2 coat protein [4]: 14.2 nM
apparent KD of MS2 coat protein (input ligand: none): 15.2 nM

CUGGUCCGAGGAUAUAUUAAGUGAAACAUGAGGAUCACCCAUGUUAUUUGAUGGAUGAAAAUAGAAGGCGGACUAG [Mat - Exclusion 5 - JL mod - D58] (puzzle: Exclusion 5)
apparent KD of MS2 coat protein [1]: 22.9 nM
apparent KD of MS2 coat protein [2]: 41.1 nM
apparent KD of MS2 coat protein [3]: 45.2 nM

AAUUCACAAGCGAGAUCCCACAUGAGGAUCACCCAUGUGCUCGUCUUAUAAGGUACUGUGACGAUAGUCACGGUACC [Mat - Sensor, turn-off var - Eli Mod - D87] (Eterna round: R97, puzzle: Sensor, turn-off variant 1)
apparent KD of MS2 coat protein (input ligand: FMN 200 uM): 16.4 nM
apparent KD of MS2 coat protein (input ligand: none): 16.1 nM

UUUUUAUAUGAAGGAUAUACUUAACAUGAGGAUCACCCAUGUGGUGUUGUGAGUGAGUGAGUUUAGUAGAAGGUCAAAGAUUUU [JMF's solution 57] (Eterna round: R96, puzzle: Exclusion NG 2)
apparent KD of MS2 coat protein (input ligand: FMN 200 uM): 1550 nM
apparent KD of MS2 coat protein [4]: 304 nM
apparent KD of MS2 coat protein (input ligand: none): 295 nM

UACAUGAGGAUCACCCAUGUUUUGUCGUGUAUGGUAUUUAUCUAGGAUAUCAAUUUAUUUAUGUAUGAGAAGGAGAAUAUUAAU [JMF's solution 23] (Eterna round: R96, puzzle: Exclusion NG 3)
apparent KD of MS2 coat protein (input ligand: FMN 200 uM): 40.8 nM
apparent KD of MS2 coat protein [4]: 29.8 nM
apparent KD of MS2 coat protein (input ligand: none): 44.7 nM

GCCACGGGAGGAUAUCGCGGAGGCUACAUGAGGAUCACCCAUGUCUGGUCUUCGUGCUCCCGAGAAGGCCCGUCAG [Bivemaus] (puzzle: Exclusion 5)
apparent KD of MS2 coat protein [2]: 13.2 nM

GGUGCGUAUGUGAGGAUAUGCUGGUCCUUGGAUCUGCAGAAGGCACAUGAGGAUCACCCAUGUGGUGUCGUACC [salish99_Bmod_Ex4_024] (Eterna round: R96, puzzle: Brourd's mod of Exclusion 4)
apparent KD of MS2 coat protein (input ligand: FMN 200 uM): 105 nM
apparent KD of MS2 coat protein [4]: 411 nM
apparent KD of MS2 coat protein (input ligand: none): 506 nM

AAAUACAAGUAAAGGUUCUACAUGAGGAUCACCCAUGUGCUCGUCUUAUAAAGUACUAUCACGAAAGUGAUAGUACA [Sensor 3, v1 - 39] (puzzle: Sensor v3, turn-off variant 1)
apparent KD of MS2 coat protein [1]: 19.2 nM
apparent KD of MS2 coat protein [2]: 92.5 nM
apparent KD of MS2 coat protein [3]: 16 nM

GAUCAUGCAGGAUAUACAGUAACCAUGAAAACAUGGUUGUAACAUGAGGAUCACCCAUGUAGAAGGGCAUGAUC [Omei Ex2 A4] (Eterna round: R97, puzzle: Exclusion 2)
apparent KD of MS2 coat protein (input ligand: FMN 200 uM): 23.5 nM
apparent KD of MS2 coat protein (input ligand: none): 15.4 nM

ACAAGCUUUUCGAUCCUCCACAUGAGGAUCACCCAUGUGCUCGACUUGUAAAGUACUAUCACGAAAGUGAUAGUACA [Sensor, turn off variant 1 v.1] (Eterna round: R97, puzzle: Sensor, turn-off variant 1)
apparent KD of MS2 coat protein (input ligand: FMN 200 uM): 455 nM
apparent KD of MS2 coat protein (input ligand: none): 629 nM

GUAAAGUGAGGAUAUGGUAAAGUAAGUAUGUAGUAAGUAAUCCAGAAGGCACAUGAGGAUCACCCAUGUAAAUG [Mat - Exclusion 4 - D99] (puzzle: Exclusion 4)
apparent KD of MS2 coat protein [2]: 28.8 nM

ACAAGCAAGACAGGAUAUACGAAGCACGUUGUGGUCUGUGACAUGAGGAUCACCCAUGUGUGAGAGUAGAAGGGUUUUGAUCCC [Edarenraat] (Eterna round: R96, puzzle: Exclusion NG 2)
apparent KD of MS2 coat protein (input ligand: FMN 200 uM): 1140 nM
apparent KD of MS2 coat protein [4]: 685 nM
apparent KD of MS2 coat protein (input ligand: none): 828 nM

AAGAAACAUGAGGAUCACCCAUGUGAGGAUAUGAAAAAGAAAAGAAAAGAAAGAAGUUUCAGAAGGCACAAAGG [salish99-ex1_r3_024] (puzzle: Exclusion 1)
apparent KD of MS2 coat protein [1]: 83.8 nM
apparent KD of MS2 coat protein [2]: 41.2 nM
apparent KD of MS2 coat protein [3]: 44.9 nM

GGAGCAAAUGUCAGGAUAUCGUGGUCGAUAGAUCACGAGAAGGGACAUGAGGAUCACCCAUGUCAGUCCGCUCC [Mat - Exclusion 4 - Eli Mod - D58] (Eterna round: R97, puzzle: Brourd's mod of Exclusion 4)
apparent KD of MS2 coat protein (input ligand: FMN 200 uM): 22 nM
apparent KD of MS2 coat protein (input ligand: none): 14.3 nM

AACCCAAUGGCAGGAUAUAGUAGACGACUCGGUCUAGAAGGGCCGCACAUGACAUGAGGAUCACCCAUGUUUCAUCUGAGGGAC [Eternabot solution 27] (Eterna round: R96, puzzle: Exclusion NG 1)
apparent KD of MS2 coat protein (input ligand: FMN 200 uM): 14.1 nM
apparent KD of MS2 coat protein [4]: 14 nM
apparent KD of MS2 coat protein (input ligand: none): 19.4 nM

UUUAGUUCAGGAUAUGUAGAUUUUAACAUGAGGAUCACCCAUGUAGAUCCUGAAUUAACUACAGAAGGGAACAUUU [Exclusion 5: 2:a] (Eterna round: R96, puzzle: Exclusion 5)
apparent KD of MS2 coat protein (input ligand: FMN 200 uM): 94.3 nM
apparent KD of MS2 coat protein [4]: 20.2 nM
apparent KD of MS2 coat protein (input ligand: none): 24.3 nM

CCGCAAAAGGAGGAUAUCGUAUCGGAUACGAUACGAGAAGGCUUUACAUGAGGAUCACCCAUGUGUCCUAGCGG [Fiskers Ex 6 - 47] (puzzle: Exclusion 6)
apparent KD of MS2 coat protein [2]: 13.4 nM

UGUUGUUACGUAGGAUAUUGUCAACAGGCAAUAGGAUAUGCGAAAGCAGAAGGAUCGCCAACAGGCGAGAAGGACGGGUUAACA [pwkr exNG2 2xF7 2xFMN.2] (Eterna round: R96, puzzle: Exclusion NG 2)
apparent KD of MS2 coat protein (input ligand: FMN 200 uM): 849 nM
apparent KD of MS2 coat protein [4]: 771 nM
apparent KD of MS2 coat protein (input ligand: none): 134 nM

AUAAUGUCAGGAUAUCAGAAGUUUAACCUCGGUUAAACUUCUGAGAAGGGACAUGAGGAUCACCCAUGUGAUUA [E4/3-B2] (Eterna round: R97, puzzle: Exclusion 4)
apparent KD of MS2 coat protein (input ligand: FMN 200 uM): 68.4 nM
apparent KD of MS2 coat protein (input ligand: none): 950 nM

AUAAUGUAAGGAUAUCAGUCGACUAGCGAUAGCUAGUCGACUGAGAAGGUACAUGAGGAUCACCCAUGUGAUUA [E4/10-A4] (Eterna round: R97, puzzle: Exclusion 4)
apparent KD of MS2 coat protein (input ligand: FMN 200 uM): 421 nM
apparent KD of MS2 coat protein (input ligand: none): 167 nM

AGUGUAGCAGGAUAUACAUGAGGAUCACCCAUGUUUCCGGGACCAGAGCAUCUGCCAUGUAGAAGGGCUGCCUU [Eternabot (L2) Solution 80] (Eterna round: R97, puzzle: Exclusion 3)
apparent KD of MS2 coat protein (input ligand: FMN 200 uM): 275 nM
apparent KD of MS2 coat protein (input ligand: none): 225 nM

AGAGUAGGCAUAGGAUAUCCGAAAGGAAGUGUAGGAGAAGGAUGUCGAGACAUGAGGAUCACCCAUGUGAUGCUUAGUCGAAAG [PowerStrip EXNG 1.18] (Eterna round: R96, puzzle: Exclusion NG 1)
apparent KD of MS2 coat protein (input ligand: FMN 200 uM): 359 nM
apparent KD of MS2 coat protein [4]: 61.1 nM
apparent KD of MS2 coat protein (input ligand: none): 50.8 nM

CCAAGCUAUUUCAUAACAAACAUGAGGAUCACCCAUGUGUAAGCAAUUAUGUUUGGGCUCUUUAGUGCUCGUCUUAU [JR_STOV1_Sub046] (Eterna round: R97, puzzle: Sensor, turn-off variant 1)
apparent KD of MS2 coat protein (input ligand: FMN 200 uM): 19.2 nM
apparent KD of MS2 coat protein (input ligand: none): 19.2 nM

UUAUAAAGAGUGAGGAUAUGCUGGUCCAUGGAUCAGCAGAAGGCACAUGAGGAUCACCCAUGUAAAAUAAUAUU [Mat - Exclusion 4 - JL Mod - D41] (puzzle: Brourd's mod of Exclusion 4)
apparent KD of MS2 coat protein [2]: 18.7 nM

ACGAGGGUUACAGGAUAUGAAGCUAAAACGGCGUUAGAAGGGUAUACAGAGUUACAUGAGGAUCACCCAUGUUGUGACUUCGAA [AK ExNG1-V2-4] (Eterna round: R96, puzzle: Exclusion NG 1)
apparent KD of MS2 coat protein [4]: 29.4 nM

UAAAAGGAAGGAUAUACACUUCAAAACCUCAUGUGACUUUCACAUGAGGAUCACCCAUGUAGAAGGUCCAAGGC [Letior] (puzzle: Exclusion 2)
apparent KD of MS2 coat protein [2]: 21.5 nM

GCGGAAAACUUAGGAUAUCAGGGCUGUACAUGAGGAUCACCCAUGUGAUAGCUCUAACACGGUCCUGAGAAGGGAGAGCCCGGA [Biorenen] (Eterna round: R96, puzzle: Exclusion NG 2)
apparent KD of MS2 coat protein (input ligand: FMN 200 uM): 109 nM
apparent KD of MS2 coat protein [4]: 49.7 nM
apparent KD of MS2 coat protein (input ligand: none): 73 nM

AGUAGUAGUAUCCGAUCCUACAUGAGGAUCACCCAUGUAGGUAGACGUGCACGCGAUGCUCGUCAGACUACCAGAUG [salish99_TOv1_r3_039] (puzzle: Sensor v3, turn-off variant 1)
apparent KD of MS2 coat protein [1]: 12.1 nM
apparent KD of MS2 coat protein [2]: 11.4 nM
apparent KD of MS2 coat protein [3]: 13.4 nM

UCGAGGUCAGGAUAUACAUGAGGAUCACCCAUGUGGAGAUAAGGUAGGAAAAGAGUAGGUAGAAGGGACGAGAG [JR_Exclu3_Sub048] (puzzle: Exclusion 3)
apparent KD of MS2 coat protein [1]: 61.4 nM
apparent KD of MS2 coat protein [2]: 40.6 nM
apparent KD of MS2 coat protein [3]: 57.6 nM

AUGCUCCGUGUAGGAUAUCGCCGUAUCACUCGGCGAGAAGGACAUGAGGAUCACCCAUGUAUGUUAUUAUCACGUGUGGCGCGC [Design 45] (Eterna round: R96, puzzle: Exclusion NG 1)
apparent KD of MS2 coat protein (input ligand: FMN 200 uM): 55.2 nM
apparent KD of MS2 coat protein [4]: 14.8 nM
apparent KD of MS2 coat protein (input ligand: none): 18.3 nM

GAAAAGGCAGGAUAUGCAAUGUUUGUCCCAUCUCUCCUAAGACAUGAGGAUCACCCAUGUAGAAGGGCCAGGAA [Eternabot (L2) Solution 62] (Eterna round: R97, puzzle: Exclusion 2)
apparent KD of MS2 coat protein (input ligand: FMN 200 uM): 33.7 nM
apparent KD of MS2 coat protein (input ligand: none): 26.5 nM

AAGAUGCGGAUAGGAUAUGGAAAAAAAAAAGGAUUAGAAGGGUUGGUUAAAAUACAUGAGGAUCACCCAUGUGAAUCAUGAGAA [AK ExNG1-2.2] (Eterna round: R96, puzzle: Exclusion NG 1)
apparent KD of MS2 coat protein (input ligand: FMN 200 uM): 392 nM
apparent KD of MS2 coat protein [4]: 188 nM
apparent KD of MS2 coat protein (input ligand: none): 186 nM
